Data as given in paper PMC4070327.

Target: TF^SBD-PPD (substrate-binding domain plus peptidyl prolyl isomerase domain of E. coli TF) (E. coli) (UniProt P0A850)
Assay: NMR relaxation dispersion

Sequence of PhoA^d-e (PhoA fragment with TF-binding sites d and e) (P00634 220-310): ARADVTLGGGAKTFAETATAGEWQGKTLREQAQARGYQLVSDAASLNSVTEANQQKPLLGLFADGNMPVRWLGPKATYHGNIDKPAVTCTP

koff [s⁻¹] | residence time (1/koff) [ms] | Substance
50 | 20 | PhoA^a-c (PhoA fragment with TF-binding sites a to c) (from UniProt P00634 1-150) (domain or fragment)
 | 20 | PhoA^d-e (PhoA fragment with TF-binding sites d and e) (from UniProt P00634 220-310) (domain or fragment)
